Measurements: publication PMC5080440

Legend:
[1] = molecular target: TagRFP-T-CENP-C with the talin rod domain inserted into the middle (internal CENP-C-TR reporter) (Drosophila melanogaster | chicken) (UniProt P54939); test: quantitative two-colour fluorescence imaging of recruitment to kinetochores in live cells; S2 cells co-expressing VH-EGFP and TagRFP-T-CENP-C-TR; 25 uM colchicine (unattached kinetochores, low/no force); VH-EGFP to TagRFP-T ratio divided by the correction ratio from TagRFP-T-CENP-C-EGFP; 25 °C
[2] = molecular target: TagRFP-T-CENP-C with the talin rod domain at the C terminus (C-terminal CENP-C-TR control reporter) (Drosophila melanogaster | chicken) (UniProt P54939); test: as above
[3] = molecular target: TagRFP-T-CENP-C with the talin rod domain inserted into the middle (internal CENP-C-TR reporter) (Drosophila melanogaster | chicken) (UniProt P54939); test: quantitative two-colour fluorescence imaging of recruitment to kinetochores in live cells; S2 cells co-expressing VH-EGFP and TagRFP-T-CENP-C-TR; metaphase cells, 0.1% DMSO (bioriented kinetochores, under force); VH-EGFP to TagRFP-T ratio divided by the correction ratio from TagRFP-T-CENP-C-EGFP; 25 °C

B1: vinculin head domain (aa 1-258) fused to EGFP (domain or fragment)
chain: MPVFHTRTIESILEPVAQQISHLVIMHEEGEVDGKAIPDLTAPVSAVQAAVSNLVRVGKETVQTTEDQILKRDMPPAFIKVENACTKLVRAAQMLQADPYSVPARDYLIDGSRGILSGTSDLLLTFDEAEVRKIIRVCKGILEYLTVAEVVETMEDLVTYTKNLGPGMTKMAKMIDERQQELTHQEHRVMLVNSMNTVKELLPVLISAMKIFVTTKNTKSQGIEEALKNRNFTVEKMSAEINEIIRVLQLTSWDEDAW
stoichiometry N (VH-EGFP molecules per TR) [1]: 0.9 | stoichiometry N (VH molecules per TR) [2]: 0.75 | stoichiometry N (VH molecules per CENP-C-TR) [3]: 1.3
